According to patent publication US20200308257A1:

Key:
Experiment in all cases: cell-based or functional assay
[1] = biological target: H1N1 circulating viruses (n=18) and vaccines strains (n=3)
[2] = biological target: H3N2 circulating viruses (n=30) and vaccines strains (n=4)
[3] = biological target: all H3N2 and H1N1 circulating strains and vaccines strains (n=55 viruses)

B1: VIS410 (antibody, V domains shown)
VH: QVQLLETGGGLVKPGQSLKLSCAASGFTFTSYAMHWVRQPPGKGLEWVAVVSYDGNYKYYADSVQGRFTISRDNSKNTLYLQMNSLRAEDTAVYYCAKDSRLRSLLYFEWLSQGYFNPWGQGTTLTVSS
VL: DIQMTQSPSSLSASVGDRVTITCRSSQSITFDYKNYLAWYQQKPGKAPKLLIYWGSYLESGVPSRFSGSGSGTDFTLTISSLQPEDFATYYCQQHYRTPPSFGQGTKVEIK
B1 was tested, and the Mean IC50, phenotypic IC50 assay [1] was 0.6 µg/mL, the Mean IC50, phenotypic IC50 assay [2] was 1.3 µg/mL and the Median IC50, phenotypic IC50 assay [3] was 0.9 µg/mL.
